Article PMC8889352

Target: IL-12 receptor

18/12/TxM triple-cytokine fusion protein, sequence (Q13261 whole entry, looked up, the tested form may be a part): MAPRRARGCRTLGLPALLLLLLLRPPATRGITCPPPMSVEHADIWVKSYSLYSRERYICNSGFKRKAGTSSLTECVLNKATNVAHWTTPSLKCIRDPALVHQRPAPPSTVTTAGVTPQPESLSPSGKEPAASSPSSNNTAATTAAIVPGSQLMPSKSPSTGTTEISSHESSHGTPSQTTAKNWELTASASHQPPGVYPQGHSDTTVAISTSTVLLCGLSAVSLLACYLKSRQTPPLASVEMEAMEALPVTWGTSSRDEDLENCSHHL
18/12/TxM triple-cytokine fusion protein, sequence (P29459 whole entry, looked up, the tested form may be a part): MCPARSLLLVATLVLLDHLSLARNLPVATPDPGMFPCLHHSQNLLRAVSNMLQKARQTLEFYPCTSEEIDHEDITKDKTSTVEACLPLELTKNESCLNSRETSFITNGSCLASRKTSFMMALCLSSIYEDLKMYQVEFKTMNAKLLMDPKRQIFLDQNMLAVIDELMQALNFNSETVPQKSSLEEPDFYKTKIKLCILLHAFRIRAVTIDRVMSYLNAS
18/12/TxM triple-cytokine fusion protein, sequence (P29460 whole entry, looked up, the tested form may be a part): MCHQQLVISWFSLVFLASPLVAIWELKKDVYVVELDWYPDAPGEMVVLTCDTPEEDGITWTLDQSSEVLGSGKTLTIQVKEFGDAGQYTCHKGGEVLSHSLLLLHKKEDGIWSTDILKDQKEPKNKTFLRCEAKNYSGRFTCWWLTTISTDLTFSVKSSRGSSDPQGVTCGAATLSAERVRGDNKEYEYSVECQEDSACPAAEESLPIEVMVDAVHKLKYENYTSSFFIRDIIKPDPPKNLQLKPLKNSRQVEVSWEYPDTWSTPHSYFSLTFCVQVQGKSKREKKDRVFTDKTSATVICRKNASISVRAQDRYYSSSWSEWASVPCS
18/12/TxM triple-cytokine fusion protein, sequence (Q14116 whole entry, looked up, the tested form may be a part): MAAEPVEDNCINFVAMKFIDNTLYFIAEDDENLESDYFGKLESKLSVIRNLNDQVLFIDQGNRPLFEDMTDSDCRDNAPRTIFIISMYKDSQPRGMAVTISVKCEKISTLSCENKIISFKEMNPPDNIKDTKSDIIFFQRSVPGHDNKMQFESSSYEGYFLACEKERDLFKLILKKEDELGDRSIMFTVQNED

activation of IL-12 reporter HEK-Blue (HEK12) cells (STAT4-inducible SEAP), EC50: 99.1 pM
Substance: 18/12/TxM triple-cytokine fusion protein (from UniProt Q14116 37-193; P29460 23-328; P29459 23-219; Q13261 31-95) (complex)
